We go through 25 proteins from US20210238260.

Substitutions are numbered along the chain they refer to. In names and notes the source's numbering stands. Where only a bound is given, the exact number is not on record here.

One may read the kcat as the maximal rate divided by the concentration of active sites. As a reminder, the kcat/KM is the second-order rate constant that governs catalysis at low substrate concentration. One may read the KM as the concentration of substrate that gives half-maximal velocity.

B1: FIXa-D104N/K106S/R318Y/R338E/R403E/E410N (protein)
chain 1: YNSGKLEEFVQGNLERECMEEKCSFEEAREVFENTERTTEFWKQYVDGDQCESNPCLNGGSCKDDINSYECWCPFGFEGKNCELDVTCNIKNGRCEQFCKNSANNSVVCSCTEGYRLAENQKSCEPAVPFPCGRVSVSQTSKLTR
chain 2: VVGGEDAKPGQFPWQVVLNGKVDAFCGGSIVNEKWIVTAAHCVETGVKITVVAGEHNIEETEHTEQKRNVIRIIPHHNYNAAINKYNHDIALLELDEPLVLNSYVTPICIADKEYTNIFLKFGSGYVSGWGRVFHKGYSALVLQYLRVPLVDRATCLESTKFTIYNNMFCAGFHEGGRDSCQGDSGGPHVTEVEGTSFLTGIISWGEECAMKGKYGIYTKVSEYVNWIKNKTKLT
B2: FIXa-D104N/K106S/Y155F/R318Y/R338E/R403E/E410N (protein)
chain 1: B1 chain 1
chain 2: B1 chain 2
B3: FIXa-A103N/N105S/Y155F/R318Y/R338E/R403E/E410N (protein)
chain 1: B1 chain 1 with A103N, N104D, N105S, S106K
chain 2: B1 chain 2
B4: FIXa-Y155F/R318Y/R338E/R403E/E410N (protein)
chain 1: B1 chain 1 with N104D, S106K
chain 2: B1 chain 2
B5: FIXa D203N/F205T/R318Y/E410N (protein)
chain 1: B1 chain 1 with N104D, S106K
chain 2: B1 chain 2 with D23N, F25T, E158R, E223R
B6: FIXa A103N/N105S/R318Y/R338E/R403E/E410N (protein)
chain 1: B1 chain 1 with A103N, N104D, N105S, S106K
chain 2: B1 chain 2
B7: FIXa-D203N/F205T/R318Y/E410N (protein)
chain 1: B1 chain 1 with N104D, S106K
chain 2: B1 chain 2 with D23N, F25T, E158R, E223R
B8: FIXa-A103N/N105S/R318Y/R338E/R403E/E410N (protein)
chain 1: B1 chain 1 with A103N, N104D, N105S, S106K
chain 2: B1 chain 2
B9: FIXa-K293A/R338A/R403A (protein)
chain 1: B1 chain 1 with N104D, S106K
chain 2: B1 chain 2 with K113A, Y138R, E158A, E223A, N230E
B10: FIXa-R318Y/R338E/R403E (protein)
chain 1: B1 chain 1 with N104D, S106K
chain 2: B1 chain 2 with N230E
B11: FIXa-K293E/R338E/R403E (protein)
chain 1: B1 chain 1 with N104D, S106K
chain 2: B1 chain 2 with K113E, Y138R, N230E
B12: FIXa-D104N/K106S/Y155F/K247N/N249S/N260S (protein)
chain 1: B1 chain 1
chain 2: B1 chain 2 with K67N, N69S, N80S, Y138R, E158R, E223R, N230E
B13: FIXa-K247N/N249S/N260S (protein)
chain 1: B1 chain 1 with N104D, S106K
chain 2: B1 chain 2 with K67N, N69S, N80S, Y138R, E158R, E223R, N230E
B14: FIXa-K247N/N249S/N260S/R318Y/R338E/R403E/E410N (protein)
chain 1: B1 chain 1 with N104D, S106K
chain 2: B1 chain 2 with K67N, N69S, N80S
B15: FIXa-Y155F/K247N/N249S/N260S (protein)
chain 1: B1 chain 1 with N104D, S106K
chain 2: B1 chain 2 with K67N, N69S, N80S, Y138R, E158R, E223R, N230E
B16: FIXa-D104N/K106S/K247N/N249S/N260S (protein)
chain 1: B1 chain 1
chain 2: B1 chain 2 with K67N, N69S, N80S, Y138R, E158R, E223R, N230E
B17: FIXa Y155F/R318Y/R338E/R403E/E410N (protein)
chain 1: B1 chain 1 with N104D, S106K
chain 2: B1 chain 2
B18: FIXa A103N/N105S/Y155F/R318Y/R338E/R403E/E410N (protein)
chain 1: B1 chain 1 with A103N, N104D, N105S, S106K
chain 2: B1 chain 2
B19: FIXa D104N/K106S/R318Y/R338E/R403E/E410N (protein)
chain 1: B1 chain 1
chain 2: B1 chain 2
B20: FIXa D104N/K106S/Y155F/R318Y/R338E/R403E/E410N (protein)
chain 1: B1 chain 1
chain 2: B1 chain 2
B21: FIXa variant K247N/N249S/N260S (mature FIX numbering) (protein)
chain 1: B1 chain 1 with N104D, S106K
chain 2: B1 chain 2 with K67N, N69S, N80S, Y138R, E158R, E223R, N230E
B22: FIXa variant Y155F/K247N/N249S/N260S (mature FIX numbering) (protein)
chain 1: B1 chain 1 with N104D, S106K
chain 2: B1 chain 2 with K67N, N69S, N80S, Y138R, E158R, E223R, N230E
B23: FIXa variant D104N/K106S/K247N/N249S/N260S (mature FIX numbering) (protein)
chain 1: B1 chain 1
chain 2: B1 chain 2 with K67N, N69S, N80S, Y138R, E158R, E223R, N230E
B24: FIXa variant K247N/N249S/N260S/R318Y/R338E/R403E/E410N (mature FIX numbering) (protein)
chain 1: B1 chain 1 with N104D, S106K
chain 2: B1 chain 2 with K67N, N69S, N80S
B25: FIXa variant D104N/K106S/Y155F/K247N/N249S/N260S (mature FIX numbering) (protein)
chain 1: B1 chain 1
chain 2: B1 chain 2 with K67N, N69S, N80S, Y138R, E158R, E223R, N230E

Sequence of Factor X, P00742 (P00742 whole entry, looked up): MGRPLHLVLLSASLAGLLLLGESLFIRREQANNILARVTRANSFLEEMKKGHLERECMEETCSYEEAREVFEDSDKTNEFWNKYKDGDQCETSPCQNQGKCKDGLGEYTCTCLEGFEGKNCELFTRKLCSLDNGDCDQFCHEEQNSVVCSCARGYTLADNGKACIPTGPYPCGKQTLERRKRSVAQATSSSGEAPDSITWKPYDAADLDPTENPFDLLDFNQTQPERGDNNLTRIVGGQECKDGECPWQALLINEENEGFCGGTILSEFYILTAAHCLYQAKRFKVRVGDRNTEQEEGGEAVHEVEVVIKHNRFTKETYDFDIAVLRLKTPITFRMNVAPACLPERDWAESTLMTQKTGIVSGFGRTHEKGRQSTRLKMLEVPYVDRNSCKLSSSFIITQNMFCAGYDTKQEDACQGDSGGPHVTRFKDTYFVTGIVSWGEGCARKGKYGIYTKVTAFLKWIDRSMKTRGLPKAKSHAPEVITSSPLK

The first data set has as its target plasma purified human AT-III (antithrombin III). Nature of the data set: same assay; ratio to K0.5 of Catalyst Biosciences WT FIXa; from lower limit value.
For B1, the K0.5-mut/K0.5-wt was greater than 517.

In the case of B2, the K0.5-mut/K0.5-wt was greater than 517.

On to B3, for which the K0.5-mut/K0.5-wt was greater than 517.

As for B4, the K0.5-mut/K0.5-wt was greater than 517.

The target of the next data set is T1, plasma purified human antithrombin III (AT-III), in complex with unfractionated heparin. Nature of the data set: K0.5 of variant over K0.5 of Catalyst Biosciences WT FIXa; AT-III/UFH inhibition assay.
As for B5, the K0.5-mut/K0.5-wt amounted to 66.2.

B6: the K0.5-mut/K0.5-wt is 475.

The next data set addresses plasma purified human AT-III (antithrombin III). Nature of the data set: same assay; ratio to K0.5 of Catalyst Biosciences WT FIXa.
On to B7, for which the K0.5-mut/K0.5-wt was determined as 66.2.

For B8, the K0.5-mut/K0.5-wt was 475.

In a further data set the target is antithrombin III (plasma purified human AT-III), used as the AT-III/unfractionated heparin complex. Nature of the data set: K0.5 ratio to Catalyst Biosciences WT FIXa, AT-III/UFH inhibition assay (from lower-limit K0.5).
For B9, the K0.5-mut/K0.5-wt is greater than 51.7 fold.

Consider B10, for which the K0.5-mut/K0.5-wt is greater than 517 fold.

Consider B11, for which the K0.5-mut/K0.5-wt was greater than 51.7 fold.

A further data set deals with T2, Antithrombin III (plasma purified human AT-III, Molecular Innovations). Nature of the data set: AT-III/UFH inhibition, expanded sensitivity assay (1000 nM-0 nM and 5000-0 nM AT-III); assigned lower limit for less than 10% inhibition.
As for B10, the K0.5 was greater than 10 µM.

The next data set has as its target T2, Antithrombin III (plasma purified human …). Nature of the data set: same assay; ratio of the lower-limit K0.5 to recombinant wild-type FIXa (Catalyst Biosciences WT).
As for B9, the K0.5-mut/K0.5-wt was greater than 51.7.

As to B10, the K0.5-mut/K0.5-wt is greater than 517.

For the protein B11, the K0.5-mut/K0.5-wt was greater than 51.7.

The target of a further data set is plasma purified human antithrombin III (AT-III), in complex with unfractionated heparin (UFH). Nature of the data set: ratio of K0.5 for AT-III/UFH inhibition, variant over Catalyst Biosciences WT FIXa.
On to B12, for which the K0.5-mut/K0.5-wt came to 35.8 fold.

As for B13, the K0.5-mut/K0.5-wt came out at 8.1 fold.

As to B14, the K0.5-mut/K0.5-wt came to 288 fold.

Regarding B15, the K0.5-mut/K0.5-wt was 7.9 fold.

Consider B16, for which the K0.5-mut/K0.5-wt came out at 65.3 fold.

In another data set the target is plasma purified human AT-III (Molecular Innovations), in complex with low molecular weight heparin.
Assay: not given
B9 registered a K0.5 of 497 nM and a K0.5-mut/K0.5-wt of 16.9 fold.

Turning to B11, the K0.5 turned out to be 418 nM and the K0.5-mut/K0.5-wt was found to be 14.2 fold.

The target of the next data set is Factor X (FX), P00742.
Sequence of Factor X (FX), P00742 (P00742 whole entry, looked up): as above
Assay: not given
For B9, the “% of WT kcat/KM” value stood at 55%, the kcat is 1.6 s⁻¹ and the kcat/KM came out at 2.5e+07 M⁻¹ s⁻¹.

Regarding B1, the kcat came out at 5.7 s⁻¹.

For B2, the kcat is 8.5 s⁻¹.

With B12, the KM stood at 0.0685 µM and the kcat of FX activation by FIXa (Xase complex with FVIIIa, PC/PS vesicles, Ca2+) is 0.5 s⁻¹.

Consider B13, for which the KM amounted to 0.114 µM and the kcat of FX activation by FIXa (Xase complex with FVIIIa, PC/PS vesicles, Ca2+) worked out at 3.3 s⁻¹.

Turning to B3, the kcat is 6.4 s⁻¹.

Regarding B7, the kcat turned out to be 1.6 s⁻¹.

Regarding B14, the KM was found to be 0.0622 µM and the kcat of FX activation by FIXa (Xase complex with FVIIIa, PC/PS vesicles, Ca2+) is 3.4 s⁻¹.

Consider B15, for which the KM came out at 0.0965 µM and the kcat of FX activation by FIXa (Xase complex with FVIIIa, PC/PS vesicles, Ca2+) was 1.8 s⁻¹.

As for B5, the KM worked out at 0.0457 µM.

As to B17, the KM turned out to be 0.0304 µM.

B18: the KM is 0.0507 µM.

Regarding B11, the “% of WT kcat/KM” value is 37%, the kcat was determined as 0.8 s⁻¹ and the kcat/KM was 1.7e+07 M⁻¹ s⁻¹.

Consider B4, for which the kcat was determined as 5.3 s⁻¹.

Turning to B6, the KM was found to be 0.0447 µM.

As to B19, the KM turned out to be 0.0385 µM.

Consider B16, for which the KM stood at 0.0612 µM and the kcat of FX activation by FIXa (Xase complex with FVIIIa, PC/PS vesicles, Ca2+) was 0.6 s⁻¹.

As for B8, the kcat was 5.4 s⁻¹.

With B20, the KM worked out at 0.048 µM.

The next data set concerns the target Factor X, P00742.
Assay: not given
Take B9: the KM is 0.0654 µM.

With B10, the KM amounted to 0.0537 µM.

As to B1, the KM worked out at 0.0385 µM.

As for B2, the KM came out at 0.048 µM.

As for B12, the “% of WT kcat/KM” value was 18%, the kcat came to 0.5 s⁻¹ and the kcat/KM is 8.2e+06 M⁻¹ s⁻¹.

As to B3, the KM was 0.0507 µM.

For B7, the KM was determined as 0.0457 µM.

As for B14, the “% of WT kcat/KM” value is 217%, the kcat came out at 6 s⁻¹ and the kcat/KM was determined as 9.7e+07 M⁻¹ s⁻¹.

B15: the “% of WT kcat/KM” value is on record as 43%, the kcat is 1.8 s⁻¹ and the kcat/KM stood at 1.9e+07 M⁻¹ s⁻¹.

For B11, the KM stood at 0.05 µM.

In the case of B4, the KM was 0.0304 µM.

B16: the “% of WT kcat/KM” value is recorded as 22%, the kcat was determined as 0.6 s⁻¹ and the kcat/KM is 9.8e+06 M⁻¹ s⁻¹.

As to B8, the KM was 0.0447 µM.

Another data set addresses T2, Antithrombin III (plasma purified human …). Description: AT-III/UFH inhibition, standard assay (35 nM-0 nM AT-III); 999 nM is the assigned lower limit for less than 10% inhibition.
In the case of B9, the K0.5 was greater than 999 nM.

In turn, B11 registered a K0.5 greater than 999 nM.

Another data set addresses T1, plasma purified human antithrombin III …. Nature of the data set: K0.5 of variant over K0.5 of Catalyst Biosciences WT FIXa; AT-III/UFH inhibition assay; from lower limit K0.5.
B17 yielded a K0.5-mut/K0.5-wt greater than 517.

With B18, the K0.5-mut/K0.5-wt was greater than 517.

Protein B19 yielded a K0.5-mut/K0.5-wt greater than 517.

B20: the K0.5-mut/K0.5-wt is greater than 517.

Another data set deals with plasma purified human AT-III (antithrombin III), in complex with full-length unfractionated heparin (UFH). Description: ratio of K0.5 of the variant to K0.5 of Catalyst Biosciences WT FIXa, AT-III/UFH inhibition.
For B21, the K0.5-mut/K0.5-wt worked out at 8.1.

B22: the K0.5-mut/K0.5-wt amounted to 7.9.

For B23, the K0.5-mut/K0.5-wt amounted to 65.3.

On to B24, for which the K0.5-mut/K0.5-wt is 288.

In the case of B25, the K0.5-mut/K0.5-wt worked out at 35.8.
